Assay results published in paper PMC7954794, “Protein context shapes the specificity of SH3 domain-mediated interactions in vivo” (Nature Communications, 2021).

Tested on: PPIs identified as affected by the SH3 domain deletions
Test: Liquid DHFR-PCA low-throughput validation of PPIs affected by SH3 deletion (Fig. S1D-E)
Format: cell-based, Saccharomyces cerevisiae
Details: label = prey, liquid DHFR-PCA, prey _1 = lost, _2 = gained in screen
Procedure, shortened: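 Yeast diploids from DHFR-PCA mating grown 48 h in synthetic complete MSG medium pH 6.0 with NAT and HPH, normalized to 1 OD and diluted to 0.1 OD in liquid PCA selection medium. Growth followed by OD every 15 min for 72 h at 30 °C.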

| Molecule | Ratio (Deletedscore / WTscore) (bait BEM1-1) | Ratio (Deletedscore / WTscore) (bait BEM1-2) | Ratio (Deletedscore / WTscore) (bait BBC1) | Ratio (Deletedscore / WTscore) (bait MYO3) | Ratio (Deletedscore / WTscore) (bait PIN3) | further results |
| --- | --- | --- | --- | --- | --- | --- |
| YBR102C_1 (protein, UniProt P38261 1-753, looked up) Exocyst complex component …: MVEFSLKKARNNWKHVKKSASSPAKQKTPPSPAKPKQKTKKNPYSDLKDPATSYTLPTINARERSRVATSMQRRLSIHNTNYAPPTLDYSMPLPDMPNMIVPNDNVDSSHNNSSFTTENESVSSKGPSNSLNLSTADLSLNDSSYNKVPARSAMRNTVNPSGSNDPFNNSTSLRKMLANPHFNAKDFVHDKLGNASAITIDKFTSNLTDLSIQVQEEVKLNINKSYNEIMTVNNDLNVAMLELKRVRANINDLNEVLDQCTKIAEKRLQLQDQIDQERQGNFNNVESHSNSPALLPPLKAGQNGNLMRRDRSSVLILEKFWDTELDQLFKNVEGAQKFINSTKGRHILMNSANWMELNTTTGKPLQMVQIFILNDLVLIADKSRDKQNDFIVSQCYPLKDVTVTQEEFSTKRLLFKFSNSNSSLYECRDADECSRLLDVIRKAKDDLCDIFHVEEENSKRIRESFRYLQSTQQTPGRENNRSPNKNKRRSMGGSITPGRNVTGAMDQYLLQNLTLSMHSRPRSRDMSSTAQRLKFLDEGVEEIDIELARLRFESAVETLLDIESQLEDLSERISDEELMLLNLISLKIEQRREAISSKLSQSILSSNEIVHLKSGTENMIKLGLPEQALDLFLQNRSNFIQDLILQIGSVDNPTNYLTQLAVIRFQTIKKTVEDFQDIFKELGAKISSILVDWCSDEVDNHFKLIDKQLLNDEMLSPGSIKSSRKQIDGLKAVGLDFVYKLDEFIKKNSDKIR | 0.5987 | 0.6932 |  |  |  | Ratio (Deletedscore / WTscore) (bait RVS167): 0.8234 |
| YNL243W_1 (protein, UniProt P33338 1-968, looked up) Protein SLA2: MSRIDSDLQKALKKACSVEETAPKRKHVRACIVYTWDHQSSKAVFTTLKTLPLANDEVQLFKMLIVLHKIIQEGHPSALAEAIRDRDWIRSLGRVHSGGSSYSKLIREYVRYLVLKLDFHAHHRGFNNGTFEYEEYVSLVSVSDPDEGYETILDLMSLQDSLDEFSQIIFASIQSERRNTECKISALIPLIAESYGIYKFITSMLRAMHRQLNDAEGDAALQPLKERYELQHARLFEFYADCSSVKYLTTLVTIPKLPVDAPDVFLINDVDESKEIKFKKREPSVTPARTPARTPTPTPPVVAEPAISPRPVSQRTTSTPTGYLQTMPTGATTGMMIPTATGAANAIFPQATAQMQPDFWANQQAQFANEQNRLEQERVQQLQQQQAQQELFQQQLQKAQQDMMNMQLQQQNQHQNDLIALTNQYEKDQALLQQYDQRVQQLESEITTMDSTASKQLANKDEQLTALQDQLDVWERKYESLAKLYSQLRQEHLNLLPRFKKLQLKVNSAQESIQKKEQLEHKLKQKDLQMAELVKDRDRARLELERSINNAEADSAAATAAAETMTQDKMNPILDAILESGINTIQESVYNLDSPLSWSGPLTPPTFLLSLLESTSENATEFATSFNNLIVDGLAHGDQTEVIHCVSDFSTSMATLVTNSKAYAVTTLPQEQSDQILTLVKRCAREAQYFFEDLMSENLNQVGDEEKTDIVINANVDMQEKLQELSLAIEPLLNIQSVKSNKETNPHSELVATADKIVKSSEHLRVDVPKPLLSLALMIIDAVVALVKAAIQCQNEIATTTSIPLNQFYLKNSRWTEGLISAAKAVAGATNVLITTASKLITSEDNENTSPEQFIVASKEVAASTIQLVAASRVKTSIHSKAQDKLEHCSKDVTDACRSLGNHVMGMIEDDHSTSQQQQPLDFTSEHTLKTAEMEQQVEILKLEQSLSNARKRLGEIRRHAYYNQDDD | 1.137 | 0.8469 | 0.664 | 0.5927 | 1.05 | Ratio (Deletedscore / WTscore) (bait BZZ1-1): 0.856; Ratio (Deletedscore / WTscore) (bait HOF1): 0.8741; Ratio (Deletedscore / WTscore) (bait MYO5): 0.7315 |
| YLR337C_1 (protein, UniProt P37370 1-817, looked up) Verprolin: MAGAPAPPPPPPPPALGGSAPKPAKSVMQGRDALLGDIRKGMKLKKAETNDRSAPIVGGGVVSSASGSSGTVSSKGPSMSAPPIPGMGAPQLGDILAGGIPKLKHINNNASTKPSPSASAPPIPGAVPSVAAPPIPNAPLSPAPAVPSIPSSSAPPIPDIPSSAAPPIPIVPSSPAPPLPLSGASAPKVPQNRPHMPSVRPAHRSHQRKSSNISLPSVSAPPLPSASLPTHVSNPPQAPPPPPTPTIGLDSKNIKPTDNAVSPPSSEVPAGGLPFLAEINARRSERGAVEGVSSTKIQTENHKSPSQPPLPSSAPPIPTSHAPPLPPTAPPPPSLPNVTSAPKKATSAPAPPPPPLPAAMSSASTNSVKATPVPPTLAPPLPNTTSVPPNKASSMPAPPPPPPPPPGAFSTSSALSASSIPLAPLPPPPPPSVATSVPSAPPPPPTLTTNKPSASSKQSKISSSSSSSAVTPGGPLPFLAEIQKKRDDRFVVGGDTGYTTQDKQEDVIGSSKDDNVRPSPISPSINPPKQSSQNGMSFLDEIESKLHKQTSSNAFNAPPPHTDAMAPPLPPSAPPPPITSLPTPTASGDDHTNDKSETVLGMKKAKAPALPGHVPPPPVPPVLSDDSKNNVPAASLLHDVLPSSNLEKPPSPPVAAAPPLPTFSAPSLPQQSVSTSIPSPPPVAPTLSVRTETESISKNPTKSPPPPPSPSTMDTGTSNSPSKNLKQRLFSTGGSTLQHKHNTHTNQPDVDVGRYTIGGSNSIVGAKSGNERIVIDDSRFKWTNVSQMPKPRPFQNKTKLYPSGKGSSVPLDLTLFT |  |  | 0.3637 | 0.5955 | 0.5606 | Ratio (Deletedscore / WTscore) (bait LSB1): 0.5725; Ratio (Deletedscore / WTscore) (bait LSB3): 0.8547 |
| YLR196W_1 (protein, UniProt P21304 1-576, looked up) Periodic tryptophan protein 1: MISATNWVPRGFSSEFPEKYVLDDEEVERINQLAQLNLDDAKATLEEAEGESGVEDDAATGSSNKLKDQLDIDDDLKEYNLEEYDDEEIADNEGGKDVSMFPGLSNDSDVKFHEGEKGEDPYISLPNQEDSQEEKQELQVYPSDNLVLAARTEDDVSYLDIYVYDDGAGFHSSDIPVEEGDEADPDVARGLVRDPALYVHHDLMLPAFPLCVEWLDYKVGSNSEEAANYAAIGTFDPQIEIWNLDCVDKAFPDMILGEPLDNSMVSLKSKKKKKKSKTGHITTHHTDAVLSMAHNKYFRSVLASTSADHTVKLWDLNSGNAARSLASIHSNKNVSSSEWHMLNGSILLTGGYDSRVALTDVRISDESQMSKYWSAMAGEEIETVTFASENIILCGTDSGNVYSFDIRNNENRKPVWTLKAHDAGISTLCSNKFIPGMMSTGAMGEKTVKLWKFPLDDATNTKGPSMVLSRDFDVGNVLTSSFAPDIEVAGTMVIGGVNKVLKLWDVFTNRSVRKSFKSELENVQARAKEEAQKIGKSSRIARKYTSNDNPDTVITIDDQGEDEEEREGGDEHDDMA |  |  | 1.08 |  |  |  |
| YML016C_1 (protein, UniProt P26570 2-692, looked up) Serine/threonine-protein …: GNSSSKSSKKDSHSNSSSRNPRPQVSRTETSHSVKSAKSNKSSRSRRSLPSSSTTNTNSNVPDPSTPSKPNLEVNHQRHSSHTNRYHFPSSSHSHSNSQNELLTTPSSSSTKRPSTSRRSSYNTKAAADLPPSMIQMEPKSPILKTNNSSTHVSKHKSSYSSTYYENALTDDDNDDKDNDISHTKRFSRSSNSRPSSIRSGSVSRRKSDVTHEEPNNGSYSSNNQENYLVQALTRSNSHASSLHSRKSSFGSDGNTAYSTPLNSPGLSKLTDHSGEYFTSNSTSSLNHHSSRDIYPSKHISNDDDIENSSQLSNIHASMENVNDKNNNITDSKKDPNEEFNDIMQSSGNKNAPKKFKKPIDIDETIQKLLDAGYAAKRTKNVCLKNNEILQICIKAREIFLSQPSLLELSPPVKIVGDVHGQYGDLLRLFTKCGFPPSSNYLFLGDYVDRGKQSLETILLLFCYKIKYPENFFLLRGNHECANVTRVYGFYDECKRRCNIKIWKTFIDTFNTLPLAAIVAGKIFCVHGGLSPVLNSMDEIRHVVRPTDVPDFGLINDLLWSDPTDSPNEWEDNERGVSYCYNKVAINKFLNKFGFDLVCRAHMVVEDGYEFFNDRSLVTVFSAPNYCGEFDNWGAVMSVSEGLLCSFELLDPLDSAALKQVMKKGRQERKLANQQQQMMETSITNDNESQQ |  | 0.6049 | 0.8012 | 0.8355 |  |  |
| YOR042W_1 (protein, UniProt Q08412 1-411, looked up) Ubiquitin-binding protein CUE5: MEEKEGIKDSSLLEKSNVPESINEDISKTTDVDLNSDGKKDNDTSAKDGTPKVEEKVNKSSGIDEDEVVTPAEDAKEEEEEHPPLPARRKSEEEPSKENPILQELKDAFPNLEEKYIKAVIIASQGVLSPAFNALLFLSDPESGKDIELPTQPVRKNPEAPARRRQTQLEQDELLARQLDEQFNSSHSRRRNRDRATRSMHEQRRRRHNPNEREQHHEDSEEEDSWSQFVEKDLPELTDRAGRSLQDTANKVSNWISDAYRRNFASGNEQNDNQHGHQDQQEWEPEIVDLSQGGKNSRPQQPERRRFNSFGVQVGDDSLESHGITLHNEDGFEDDEDVPPQLPTRTKSGESTGKVVAETTYIDTPDTETKKKWQPLPPEPLDTTPTKVNAVSRNKKNPDEDEFLINSDDEM |  |  | 0.4675 |  | 0.5809 |  |
